Test results as given in patent publication US20110044985A1 (RINAT NEUROSCIENCE, published 2011).
Where a chain is given by its changes, count along the chain named. Names and notes keep the numbering of the source. Values belong to the binder of their own block, whether it stands above or below them. No end group written: not given here.

Tests used:
28 KGAIIGLMVGGVVIAG = target: T1, 28 KGAIIGLMVGGVVIAG (also: biotinylated (position not given here)); experiment: ELISA, biotinylated peptide on streptavidin-coated plate, goat anti-human kappa HRP
T1 construct: It differs from m21 (Aβ peptide 28-42, not biotinylated, no added glycine); also called Biotinylated Aβ peptide with amino acids 28-42 and a glycine at the C-terminus; 28-42 15-mer
T1 peptide: KGAIIGLMVGGVVIAG
Description: (§1) Various Aβ peptides (assigned SEQ ID NO:18-26, 31, and 27-29 from top to bottom sequences) were immobilized on ELISA plates. Antibodies were incubated for 1 hour with various immobilized peptides. Antibody 6G bound to immobilized Aβ peptides were measured using goat anti-human kappa HRP conjugated secondary antibody. […] “NB” refers to no binding detected.
(§2) ELISA was used for measuring binding of antibody 6G and variants to biotinylated Aβ peptides. NUNC maxisorp plates were coated with 6 ug/ml of streptavidin (Pierce, 21122) in PBS pH 7.4 for more than 1 h at 4° C. Plates were blocked with 1% BSA in PBS buffer pH 7.4. After washing, biotinylated Aβ peptides in PBS pH 7.4 were incubated 1 hour at room temperature. Primary antibody (from cell supernatants, serum containing anti-Aβ antibody, or purified full antibody or Fabs at desired dilution) was incubated with the immobilized Aβ peptides for 1 h at room temperature. After washing, plates were incubated with secondary antibody, a HRP conjugated goat anti-human kappa chain antibody (MP Biomedicals, 55233) at 1:5000 dilution. After washing, bound secondary antibody was measured by adding TMB substrate (KPL, 50-76-02, 50-65-02). HRP reaction was stopped by adding 1M phosphoric acid and absorbance at 450 nm was measured.

[1] = target: T2, Biotinylated Aβ peptide with amino acids 19-33 and a glycine at the C-terminus (also: biotinylated (position not given here)); experiment: as above
T2 peptide: FFAEDVGSNKGAIIGG
Description: as §1, §2

[2] = target: T3, Biotinylated Aβ peptide with amino acids 26-40 and a glycine at the C-terminus (also: biotinylated (position not given here)); experiment: as above
T3 peptide: SNKGAIIGLMVGGVVG
Description: as §1, §2

[3] = target: T4, Biotinylated Aβ peptide with amino acids 27-41 and a glycine at the C-terminus (also: biotinylated (position not given here)); experiment: as above
T4 peptide: NKGAIIGLMVGGVVIG
Description: as §1, §2

[4] = target: T5, Biotinylated Aβ peptide with amino acids 24-33 and a glycine at the C-terminus (also: biotinylated (position not given here)); experiment: as above
T5 peptide: VGSNKGAIIGG
Description: as §1, §2

[5] = target: T6, Biotinylated Aβ peptide with amino acids 26-35 and a glycine at the C-terminus (also: biotinylated (position not given here)); experiment: as above
T6 peptide: SNKGAIIGLMG
Description: as §1, §2

Aβ1-42 = target: T7, Aβ1-42; experiment: ELISA, nonbiotinylated peptide on plate
T7 construct: also called 1-42 (WT); Aβ peptide 1-42
Description: (§3) ELISA was used for measuring binding of antibody 6G and variants to nonbiotinylated Aβ peptides. NUNC maxisorp plates were coated with 2.5 ug/ml of Aβ peptides in PBS pH 7.4 for more than 1 hour at 4° C. Plates were blocked with 1% BSA in PBS buffer pH 7.4. Primary antibody (from cell supernatants, serum containing anti-Aβ antibody, or purified full antibody or Fabs at desired dilution) was incubated with the immobilized Aβ peptides for 1 h at room temperature. After washing, the plates were incubated with secondary antibody, a HRP conjugated goat anti-human kappa chain antibody (MP Biomedicals, 55233) at 1:5000 dilution. After washing, bound secondary antibody was measured by adding TMB substrate (KPL, 50-76-02, 50-65-02). The HRP reaction was stopped by adding 1M phosphoric acid and absorbance at 450 nm was measured.
(§4) All amino acid substitutions of the variants shown in Table 3 are described relative to the sequence of 6G. Binding was determined by ELISA described above with nonbiotinylated Aβ₁₋₄₀ or Aβ₁₋₄₂ immobilized on the surface of an ELISA plate.

Aβ1-40 = target: T8, Aβ1-40; experiment: ELISA, nonbiotinylated peptide on plate
T8 construct: also called 1-40 (WT); Aβ peptide 1-40
Description: as §3, §4

T7 sequence (peptide, as listed by the source): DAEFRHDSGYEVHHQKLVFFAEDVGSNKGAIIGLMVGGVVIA
T8 sequence (peptide, as listed by the source): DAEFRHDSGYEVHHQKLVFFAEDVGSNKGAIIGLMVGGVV

B2: 6G heavy chain mutant variant 7D (N101C) (antibody, V domains shown)
VH: QVQLVQSGAEVKKPGASVKVSCKASGYTFTTYAIHWVRQAPGQGLEWMGFTSPYSGVSNYNQKFKGRVTMTRDTSTSTVYMELSSLRSEDTAVYYCARFDCYDRGYVRDYWGQGTLVTVS
VL: DIVMTQSPDSLAVSLGERATINCRASESVDNDRISFLNWYQQKPGQPPKLLIYAATKQGTGVPDRFSGSGSGTDFTLTISSLQAEDVAVYYCQQSKEFPWSFGGGTKVEIKR
A450 ELISA (Aβ1-42): 0.31 A450

B3: 6G light chain mutant variant 5B (Q94G) (antibody, V domains shown)
VH: B2 VH with C101N
VL: B2 VL with Q94G
A450 ELISA (Aβ1-42): 0.14 A450

B4: 6G light chain mutant variant 6E (E97P) (antibody, V domains shown)
VH: B2 VH with C101N
VL: B2 VL with E97P
A450 ELISA (Aβ1-42): 0.2 A450

B7: 6G heavy chain mutant variant 8H (N101H) (antibody, V domains shown)
VH: B2 VH with C101H
VL: B2 VL
A450 ELISA (Aβ1-40): 0.21 A450

Results, then the binder that gave them:

binding result (28 KGAIIGLMVGGVVIAG): no binding (tested: 10 ug/ml)
binding result [1]: no binding (tested: 10 ug/ml)
binding result [2]: no binding (tested: 10 ug/ml)
binding result [3]: no binding (tested: 10 ug/ml)
binding result [4]: no binding (tested: 10 ug/ml)
binding result [5]: no binding (tested: 10 ug/ml)
B1: antibody 6G (antibody, V domains shown)
VH: QVQLVQSGAEVKKPGASVKVSCKASGYTFTTYAIHWVRQAPGQGLEWMGFTSPYSGVSNYNQKFKGRVTMTRDTSTSTVYMELSSLRSEDTAVYYCARFDNYDRGYVRDYWGQGTLVTVSS
VL: B2 VL
notes: Full antibody; human IgG2a constant region with A330P331 to S330S331, human kappa; also called 6G monoclonal antibody; 6G full antibody

A450 ELISA (Aβ1-42): 0.12 A450
B5: 6G light chain mutant variant 10E (S95L) (antibody, V domains shown)
VH: B2 VH with C101N
VL: B2 VL with S95L

A450 ELISA (Aβ1-42): 0.18 A450
B6: 6G light chain mutant variant 7E (Q94R) (antibody, V domains shown)
VH: B2 VH with C101N
VL: B2 VL with Q94R

A450 ELISA (Aβ1-42): 0.19 A450
B8: 6G light chain mutant variant 7F (Q94K) (antibody, V domains shown)
VH: B2 VH with C101N
VL: B2 VL with Q94K
